Assay results from PMC4073494 (Nature communications, 2014).

Molecular target: purified full-length EED (AlphaScreen) (UniProt O75530 1-441)
Assay: AlphaScreen or HTRF

Chain of purified full-length EED (AlphaScreen) (O75530 whole entry): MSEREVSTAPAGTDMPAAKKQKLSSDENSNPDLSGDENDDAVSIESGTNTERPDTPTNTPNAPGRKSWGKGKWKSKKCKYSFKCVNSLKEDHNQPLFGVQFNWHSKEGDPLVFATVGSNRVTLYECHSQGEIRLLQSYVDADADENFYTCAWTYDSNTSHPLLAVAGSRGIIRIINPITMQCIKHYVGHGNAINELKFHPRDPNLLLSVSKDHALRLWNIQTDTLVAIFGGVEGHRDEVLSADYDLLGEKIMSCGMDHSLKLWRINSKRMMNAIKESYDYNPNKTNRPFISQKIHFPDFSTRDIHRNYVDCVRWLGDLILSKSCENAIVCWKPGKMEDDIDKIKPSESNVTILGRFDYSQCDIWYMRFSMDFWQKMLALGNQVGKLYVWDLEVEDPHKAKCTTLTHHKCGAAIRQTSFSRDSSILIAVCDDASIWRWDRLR

B1: unlabeled full-length EZH2 (AlphaScreen) (natural protein)
chain: not shown
EC50: 148 nM
